This passage reports binding result and Kd results from US20190218277A1 (Chugai, published 2019).

Residue numbers refer to the chain shown, from its start.

First the molecules themselves.
B1: DG_3CH1000-SG182/3CL666-SK1 (antibody, V domains shown)
VH: QVQLVQSGPDVEKPGASVKVSCKASGYTFTSYYMHWVRQAPGQGLEWMGVINPRGGSRRSAQKFQGRITMTRDTSTSTVYMELSSLRSEDTAVYYCARGGRALFYDSYTTPFDGGSWWFDPWGQGSLVTVSS
VL: DIQLTQSPSSLSASVGDRVTITCQASQEIRKYLNWYQQKPGKAPKLLIYDASNLKTGVPSRFSGSGSGTDFTLTISSLQPEDVATYYCQQFDDLPITFGQGTRLQIKR
B2: DG_3CH1047-SG182/3CL666-SK1 (antibody, V domains shown)
VH: B1 VH with R101E
VL: B1 VL
B3: DG_3CH1046-SG182/3CL012-SK1 (antibody, V domains shown)
VH: B1 VH with P9A, D10E, E12K, I68V
VL: B1 VL with I21F, E28D, L73F, D92E
B4: DG_3CH1049-SG182/3CL119-SK1 (antibody, V domains shown)
VH: B1 VH with P9A, D10E, E12K, I68V, R101E
VL: B1 VL with I21F, L73F
B5: DG_3CH1049-SG182/3CL012-SK1 (antibody, V domains shown)
VH: B1 VH with P9A, D10E, E12K, I68V, R101E
VL: B1 VL with I21F, E28D, L73F, D92E
B6: DG_3CH1046-SG182/3CL-SK1 (antibody, V domains shown)
VH: B1 VH with P9A, D10E, E12K, I68V
VL: B1 VL with I21F, E28D, L73F
B7: DG_3CH1047-SG182/3CL633-SK1 (antibody, V domains shown)
VH: B1 VH with R101E
VL: B1 VL with E28D
B8: DG_3CH1047-SG1095/3CL012-SK1 (antibody, human IgG1, kappa, L234A L235A)
heavy: QVQLVQSGPDVEKPGASVKVSCKASGYTFTSYYMHWVRQAPGQGLEWMGVINPRGGSRRSAQKFQGRITMTRDTSTSTVYMELSSLRSEDTAVYYCARGGEALFYDSYTTPFDGGSWWFDPWGQGSLVTVSSASTKGPSVFPLAPSSKSTSGGTAALGCLVKDYFPEPVTVSWNSGALTSGVHTFPAVLQSSGLYSLSSVVTVPSSSLGTQTYICNVNHKPSNTKVDKRVEPKSCDKTHTCPPCPAPEAAGGPSVFLFPPKPKDTLMISRTPEVTCVVVDVSHEDPEVKFNWYVDGVEVHNAKTKPREEQYNSTYRVVSVLTVLHQDWLNGKEYKCKVSNAALPAPISKTISKAKGQPREPQVYTLPPSREEMTKNQVSLTCLVKGFYPSDIAVEWESNGQPENNYKTTPPVLDSDGSFFLYSKLTVDKSRWQQGNVFSCSVMHEALHNHYTQKSLSLSP
light: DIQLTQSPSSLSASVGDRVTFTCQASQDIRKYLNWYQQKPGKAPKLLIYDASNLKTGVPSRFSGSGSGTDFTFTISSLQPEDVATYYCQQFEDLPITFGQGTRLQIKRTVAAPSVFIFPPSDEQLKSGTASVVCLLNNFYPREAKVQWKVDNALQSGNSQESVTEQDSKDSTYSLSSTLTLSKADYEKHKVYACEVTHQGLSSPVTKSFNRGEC
B9: DG_3CH1000-SG1095/3CL-SK1 (antibody, human IgG1, kappa, L234A L235A)
heavy: B8 heavy with E101R
light: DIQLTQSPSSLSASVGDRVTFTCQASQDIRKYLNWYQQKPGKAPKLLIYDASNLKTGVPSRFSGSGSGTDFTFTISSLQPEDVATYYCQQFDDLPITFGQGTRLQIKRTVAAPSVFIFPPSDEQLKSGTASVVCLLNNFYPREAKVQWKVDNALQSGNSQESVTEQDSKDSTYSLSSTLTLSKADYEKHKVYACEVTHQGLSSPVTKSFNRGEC
B10: DG_3CH1046-SG182/3CL633-SK1 (antibody, V domains shown)
VH: B1 VH with P9A, D10E, E12K, I68V
VL: B1 VL with E28D
B11: DG_3CH1000-SG1095/3CL119-SK1 (antibody)
heavy: B8 heavy with E101R
light: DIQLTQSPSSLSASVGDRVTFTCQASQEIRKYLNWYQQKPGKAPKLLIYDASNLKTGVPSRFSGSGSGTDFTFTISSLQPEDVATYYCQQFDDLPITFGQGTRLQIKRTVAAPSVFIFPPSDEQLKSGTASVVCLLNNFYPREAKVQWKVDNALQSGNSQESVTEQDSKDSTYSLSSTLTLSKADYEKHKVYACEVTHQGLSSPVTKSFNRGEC
B12: DG_3CH1047-SG1095/3CL119-SK1 (antibody)
heavy: B8 heavy
light: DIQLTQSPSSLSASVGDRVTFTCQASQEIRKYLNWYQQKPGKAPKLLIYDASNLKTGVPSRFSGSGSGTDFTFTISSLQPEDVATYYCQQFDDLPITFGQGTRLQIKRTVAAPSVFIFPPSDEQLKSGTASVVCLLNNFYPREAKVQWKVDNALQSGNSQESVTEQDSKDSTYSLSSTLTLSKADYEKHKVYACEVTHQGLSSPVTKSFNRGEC
B13: DG_3CH1000-SG1095/3CL012-SK1 (antibody, human IgG1, kappa, L234A L235A)
heavy: B8 heavy with E101R
light: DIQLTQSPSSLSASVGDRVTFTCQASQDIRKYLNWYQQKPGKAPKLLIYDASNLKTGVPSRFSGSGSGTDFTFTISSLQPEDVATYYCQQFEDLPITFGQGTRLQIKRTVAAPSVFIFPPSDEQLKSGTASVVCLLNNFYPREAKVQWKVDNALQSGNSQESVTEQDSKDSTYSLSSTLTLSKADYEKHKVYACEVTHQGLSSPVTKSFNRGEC
B14: DG_3CH1046-SG182/3CL119-SK1 (antibody, V domains shown)
VH: B1 VH with P9A, D10E, E12K, I68V
VL: B1 VL with I21F, L73F
B15: DG_3CH1000-SG182/3CL668-SK1 (antibody, V domains shown)
VH: B1 VH
VL: B1 VL with E28D, D92E
B16: DG_3CH1049-SG182/3CL-SK1 (antibody, V domains shown)
VH: B1 VH with P9A, D10E, E12K, I68V, R101E
VL: B1 VL with I21F, E28D, L73F

The target of one assay is T1, Recombinant soluble E protein (0.8E-His) from DENV-4 (DENV-4, UniProt P09866 280-674).
T1 construct: also called DENV-4 E protein; DV4
Kind of assay: SPR, Biacore T200. For orientation: In SPR one partner is held on a chip, and binding of the other changes the refractive index at the surface.
As to B1, the binding result is on record as “binds”.
For B2, the binding result is given as “binds”.
B3: the binding result is listed as “binds”.
Same read-out and setting: with B4 the entry was “binds”; with B5, “binds”; with B6, “binds”.
Same read-out and setting: in the case of B7 it was “binds”; in that of B8, “binds”; in that of B9, “binds”.
The same measure, in the same setting: in the case of B10 it was “binds”; in that of B11, “binds”; in that of B12, “binds”.
Consider B13, for which the binding result was “binds”.
The same measure, in the same setting: in the case of B14 it was “binds”; in that of B15, “binds”.
On the same count and under the same terms, in the case of B16 it was “binds”.

A further assay has as its target T2, Recombinant soluble E protein (0.8E-His) from DENV-2 (DENV-2, UniProt P14340 281-675).
T2 construct: also called DENV-2 E protein; DV2
Briefly: SPR, Biacore T200.
In the case of B1, the binding result was “binds”.
On the same count and under the same terms, in the case of B2 it was “binds”.
The same measure, in the same setting: in the case of B3 it was “binds”.
Still for that read-out and setting: in the case of B4 it was “binds”.
B5: the binding result is recorded as “binds”.
Still for that read-out and setting: with B6 the entry was “binds”; with B7, “binds”; with B8, “binds”.
The same measure, in the same setting: in the case of B9 it was “binds”.
The same measure, in the same setting: in the case of B10 it was “binds”.
Turning to B11, the binding result is listed as “binds”.
Same read-out and setting: with B12 the entry was “binds”; with B13, “binds”.
The same measure, in the same setting: in the case of B14 it was “binds”.
Same read-out and setting: in the case of B15 it was “binds”; in that of B16, “binds”.

The target in another assay is T3, Recombinant soluble E protein (0.8E-His) from DENV-1 (DENV-1, UniProt P27909 281-675).
T3 construct: also called DENV-1 E protein; DV1
Assay: not given
What is called Kd is a measure of binding affinity in units of concentration. As for B1, the Kd turned out to be 1660 pM.
Still for that read-out and setting: in the case of B2 it was 982 pM.
Turning to B3, the Kd came out at 1920 pM.
Same read-out and setting: in the case of B4 it was 1720 pM.
Still for that read-out and setting: with B5 the figure was 2260 pM.
As to B6, the dissociation constant Kd came to 1910 pM.
On the same count and under the same terms, in the case of B7 it was 956 pM; in that of B8, 2210 pM.
Consider B9, for which the Kd was 1800 pM.
Consider B10, for which the Kd is 1640 pM.
Still for that read-out and setting: in the case of B11 it was 1920 pM; in that of B12, 2230 pM.
Still for that read-out and setting: in the case of B13 it was 1830 pM.
On the same count and under the same terms, in the case of B14 it was 1530 pM; in that of B15, 1680 pM.
Take B16: the Kd turned out to be 2140 pM.

A further assay deals with T4, Recombinant soluble E protein (0.8E-His) from DENV-3 (DENV-3, UniProt P27915 281-673).
T4 construct: also called DENV-3 E protein; DV3
Assay: not given
Take B1: the Kd was determined as 2.5 pM.
Same read-out and setting: with B2 the figure was 42 pM; with B3, 0.145 pM; with B4, 5.09 pM.
On the same count and under the same terms, in the case of B5 it was 1.05 pM; in that of B6, 0.213 pM; in that of B7, 0.437 pM.
Same read-out and setting: in the case of B8 it was 3.17 pM.
As to B9, the Kd was determined as 16.8 pM.
Same read-out and setting: with B10 the figure was 0.201 pM; with B11, 0.0428 pM.
Still for that read-out and setting: in the case of B12 it was 3.79 pM; in that of B13, 0.959 pM; in that of B14, 2.73 pM.
Still for that read-out and setting: in the case of B15 it was 0.8 pM; in that of B16, 2.39 pM.
